Assays:
[1] = biological target: microtubules polymerised from porcine brain tubulin (GMPCPP-stabilised microtubules and seeds, and dynamic microtubules elongating or nucleated from Atto647N- or Atto647-tubulin) (porcine (endogenous in pig brain)) (UniProt P02550); assay: TIRF microscopy; microtubules elongating from surface-immobilized GMPCPP-seeds severed by laser ablation in 40 nM mScarlet-NuMA^FL and 10 µM Atto647N-tubulin; NuMA microscopy buffer, 30°C; new minus and plus ends scored
[2] = biological target: microtubules polymerised from porcine brain tubulin (GMPCPP-stabilised microtubules and seeds, and dynamic microtubules elongating or nucleated from Atto647N- or Atto647-tubulin) (porcine (endogenous in pig brain)) (UniProt P02550); assay: TIRF microscopy; γTuRC nucleation assay: biotinylated mBFP-γTuRC immobilized on the surface, 10 µM Atto647-tubulin and 5-30 nM mScarlet-NuMA^FL; γTuRC-nucleated and spontaneously (solution-) nucleated microtubules compared; γTuRC microscopy buffer, 33°C

Sequence of microtubules polymerised from porcine brain tubulin (GMPCPP-stabilised microtubules and seeds, and dynamic microtubules elongating or nucleated from Atto647N- or Atto647-tubulin) (porcine (endogenous in pig brain)) (P02550 other isoform, or with tags, fused parts or gaps, chain 1 of 2): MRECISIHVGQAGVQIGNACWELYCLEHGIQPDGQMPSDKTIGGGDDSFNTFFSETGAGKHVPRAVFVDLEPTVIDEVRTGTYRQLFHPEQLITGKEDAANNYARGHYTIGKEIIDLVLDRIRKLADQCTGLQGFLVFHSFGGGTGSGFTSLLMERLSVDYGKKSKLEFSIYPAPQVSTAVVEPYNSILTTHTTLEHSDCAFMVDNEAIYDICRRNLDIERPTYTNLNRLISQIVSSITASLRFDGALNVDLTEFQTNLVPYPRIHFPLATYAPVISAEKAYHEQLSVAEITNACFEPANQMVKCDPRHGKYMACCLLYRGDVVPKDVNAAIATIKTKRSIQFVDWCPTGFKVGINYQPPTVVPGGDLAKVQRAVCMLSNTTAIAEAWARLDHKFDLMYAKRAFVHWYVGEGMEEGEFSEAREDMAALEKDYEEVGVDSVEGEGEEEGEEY
Sequence of microtubules polymerised from porcine brain tubulin (GMPCPP-stabilised microtubules and seeds, and dynamic microtubules elongating or nucleated from Atto647N- or Atto647-tubulin) (porcine (endogenous in pig brain)) (chain, as listed by the source, chain 2 of 2): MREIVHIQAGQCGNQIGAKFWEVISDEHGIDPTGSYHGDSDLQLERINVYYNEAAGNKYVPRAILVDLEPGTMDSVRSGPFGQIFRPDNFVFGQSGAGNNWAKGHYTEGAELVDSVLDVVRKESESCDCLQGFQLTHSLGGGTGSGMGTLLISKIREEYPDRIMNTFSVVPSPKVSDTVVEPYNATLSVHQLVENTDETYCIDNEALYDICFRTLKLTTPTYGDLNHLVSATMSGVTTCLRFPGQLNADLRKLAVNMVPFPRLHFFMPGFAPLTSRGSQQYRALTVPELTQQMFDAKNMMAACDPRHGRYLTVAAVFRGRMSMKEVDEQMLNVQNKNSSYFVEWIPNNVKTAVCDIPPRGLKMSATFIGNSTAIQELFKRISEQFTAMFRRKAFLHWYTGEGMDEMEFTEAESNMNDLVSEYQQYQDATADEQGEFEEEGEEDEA

percent of ablation-generated minus ends with NuMA bound [1]: 83%
percent of minus ends of spontaneously nucleated microtubules with strong NuMA accumulation (highest NuMA concentration) [2]: 93%
Substance: mScarlet-tagged full-length human NuMA, mScarlet-NuMA^FL, Q14980-1 1-2115

Reference: PMC11812572
